Results on 3 molecules are retold here after patent publication US20160046725A1 (PIERRE FABRE MEDICAMENT, published 2016).

Where a chain is given by its changes, count along the chain named.

B1: 110D7 anti-Axl monoclonal antibody (antibody, V domains shown)
VH: EVKLVESGGGLVQPGGSLKLSCATSGFTFSDYYMYWVRQTPEKRLEWVAYISNGGGSTYYPDTVKGRFTMSRDNAKNTLYLQMSRLKSEDTAMYYCARLSFYAMDYWGQGTSVTVSS
VL: DIVMTQSHKFMSTSVGDRVSITCKASQDVTTAVAWYQQKPGQSPKLLIYWASTRHTGVPDRFTGSGSGTDYTLTISSVQAEDLALYYCQQHYRIPFTFGSGTKLEIK
notes: Murine monoclonal antibody purified from a hybridoma; a mIgG1 isotype control (9G4) is used beside it; also called m110D7; monoclonal antibody 110D7 derived from the hybridoma I-3959
B2: 1003A2 anti-Axl monoclonal antibody (antibody, V domains shown)
VH: EVKLVESGGGLVQPGGSLKLSCAASGFTFNSYSMSWVRQTPEKRLEWVAYISNGGGRTYYPDTIKGRFTLSRDNDRNTLYLQMSSLKSEDTAMYYCARGTTESYYALDYWGQGTSVTVSS
VL: B1 VL with V15L, V19I, T30I, T72N, Y92F, R93S, I94T, F96L, S100A, I106L
notes: Murine monoclonal antibody purified from a hybridoma; a mIgG1 isotype control (9G4) is used beside it; also called monoclonal antibody 1003A2 derived from the hybridoma I-4499
B3: 1024G11 anti-Axl monoclonal antibody (antibody, V domains shown)
VH: B2 VH with K19N, N30S, Y50F, I64V, L70F, D75A, K87N, Y95F, L107M
VL: B1 VL with T30I, Y87F, Y92L, R93S, I94T, F96L, S100A, I106L
notes: Murine monoclonal antibody purified from a hybridoma; a mIgG1 isotype control (9G4) is used beside it; also called monoclonal antibody 1024G11 derived from the hybridoma I-4501

One test deals with T1, human Axl receptor on human tumor cells (human, UniProt P30530 26-894).
T1 sequence: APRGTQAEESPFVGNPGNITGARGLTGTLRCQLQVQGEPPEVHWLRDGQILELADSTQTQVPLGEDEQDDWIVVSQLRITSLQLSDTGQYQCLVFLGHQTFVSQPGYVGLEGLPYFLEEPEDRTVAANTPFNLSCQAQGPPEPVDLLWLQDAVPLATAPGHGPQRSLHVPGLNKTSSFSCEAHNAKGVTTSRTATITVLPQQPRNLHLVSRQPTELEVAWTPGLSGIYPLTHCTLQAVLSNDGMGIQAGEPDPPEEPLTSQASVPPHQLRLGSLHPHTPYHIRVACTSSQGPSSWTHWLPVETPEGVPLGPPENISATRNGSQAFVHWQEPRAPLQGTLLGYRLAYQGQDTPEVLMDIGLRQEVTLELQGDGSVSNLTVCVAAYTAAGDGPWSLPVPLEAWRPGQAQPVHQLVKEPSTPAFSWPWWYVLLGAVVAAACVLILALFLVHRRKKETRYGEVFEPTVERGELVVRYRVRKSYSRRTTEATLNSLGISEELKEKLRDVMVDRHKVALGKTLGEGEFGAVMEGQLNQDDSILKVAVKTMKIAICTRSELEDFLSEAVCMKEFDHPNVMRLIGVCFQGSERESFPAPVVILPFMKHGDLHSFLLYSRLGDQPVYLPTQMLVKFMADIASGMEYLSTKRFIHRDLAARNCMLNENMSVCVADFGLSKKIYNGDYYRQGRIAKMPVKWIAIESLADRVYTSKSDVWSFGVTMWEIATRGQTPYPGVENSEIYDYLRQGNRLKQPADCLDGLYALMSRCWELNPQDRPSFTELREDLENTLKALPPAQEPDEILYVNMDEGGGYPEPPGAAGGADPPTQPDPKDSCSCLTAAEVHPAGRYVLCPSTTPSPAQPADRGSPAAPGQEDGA
In words: cell-based or functional assay.
Consider B1, for which the “Axl down-regulation at 4 h (western blot, SN12C)” value (from here on “Axl down-regulation at 4 h”) was determined as 50%; the “Axl down-regulation at 24 h (western blot, SN12C)” value (shortened to “Axl down-regulation at 24 h”) was 84%; the “maximal cytotoxic effect on SN12C cells (Mab-Zap assay)” value (“maximal cytotoxic effect” for short) was approximately 49%.

For B2, the “Axl down-regulation at 4 h” value came out at 66%; the “Axl down-regulation at 24 h” value is 89%; the “maximal cytotoxic effect” value was approximately 37%.

As for B3, the “Axl down-regulation at 4 h” value turned out to be 68%; the “Axl down-regulation at 24 h” value was determined as 85%; the “maximal cytotoxic effect” value was approximately 40%.

Another test concerns the target T1, human Axl receptor on human tumor cells. In words: cell-based or functional assay. This is another data set of the same source.
With B1, the “% remaining Axl” value worked out at 29.8% and the “Δ (MFI No Ab 24 h - MFI Ab 24 h)” value came to 588 MFI.

As for B2, the “% remaining Axl” value worked out at 35% and the “Δ (MFI No Ab 24 h - MFI Ab 24 h)” value was 505 MFI.

With B3, the “% remaining Axl” value came out at 45.5% and the “Δ (MFI No Ab 24 h - MFI Ab 24 h)” value amounted to 478 MFI.

The target of another test is T2, recombinant human Axl-Fc protein (R and D Systems, cat N° 154-AL) (human, UniProt P30530 26-451).
T2 construct: Bought construct; An anti-Histidine coating control hints at a His tag, not described; also called rhAxl-Fc; rh Axl-Fc; not shown: human Fc portion of the bought fusion
T2 sequence: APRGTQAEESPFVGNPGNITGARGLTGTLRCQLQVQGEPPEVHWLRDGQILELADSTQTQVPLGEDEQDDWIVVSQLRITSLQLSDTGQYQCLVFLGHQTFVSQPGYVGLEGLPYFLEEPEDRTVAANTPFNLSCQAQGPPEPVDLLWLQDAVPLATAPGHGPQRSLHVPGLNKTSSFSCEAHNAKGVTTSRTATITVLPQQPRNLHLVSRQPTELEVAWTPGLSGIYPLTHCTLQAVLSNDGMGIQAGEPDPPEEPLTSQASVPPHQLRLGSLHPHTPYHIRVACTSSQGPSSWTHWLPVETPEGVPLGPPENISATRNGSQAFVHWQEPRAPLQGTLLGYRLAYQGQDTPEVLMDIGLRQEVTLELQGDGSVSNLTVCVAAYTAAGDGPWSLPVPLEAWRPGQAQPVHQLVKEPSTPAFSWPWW
In words: competition ELISA, rhAxl-Fc on coated rhGas6 (competitor: Gas6). The protocol: To further characterize the anti-Axl Mabs, Gas6 competition assays were performed. In this assay, the free rhAxl-Fc protein and the anti-Axl antibody are incubated to form antigen-antibody complex and then the complexes are loaded on Gas6-coated surface in the assay plate. The unbound antibody-antigen complexes are washed off before adding enzyme-linked secondary antibody against the human Fc portion of the rhAxl-Fc protein. The substrate is then added and the antigen concentration can then be determined by the signal strength elicited by the enzyme-substrate reaction.
Briefly reaction mixture comprising the rhAxl-Fc protein in presence or not of the Mabs to be tested, are prepared on a separate saturated (0.5% gelatin in PBS 1×) plate. Serial 1: 2 dilutions (starting from 80 μg/ml on 12 columns) of murine Axl antibodies (110D7, 1003A2 and 1024G11) are performed. Then 0.5 μg/ml of the rhAxl-Fc protein is added (R and D Systems, ref 154AL/CF), except to the negative control line that contains only ELISA diluant (0.1% gelatin, 0.05% Tween 20 in PBS 1×). After homogenisation, the competition samples are loaded on Gas6-coated plates with a 6 μg/ml rhGas6 solution in PBS (R and D Systems cat N° 885-GS-CS/CF). After incubation and several washes, bound rhAxl-Fc proteins are detected using a goat anti-Human IgG-HRP (Jackson, ref 109-035-098). Once bound, the TMB substrate is added to the plates. The reaction is stopped by addition of H₂SO₄ acid solution and the obtained optical densities read at 450 nm using a microplate reader instrument.
For B1, the “antibody concentration above which competition with Gas6 binding occurs” value is more than 16.7 nM.

For B2, the “antibody concentration above which competition with Gas6 binding occurs” value is more than 16.7 nM.

B3: the “antibody concentration above which competition with Gas6 binding occurs” value was more than 16.7 nM.
